This is an account of results in paper PMC4997359 (Scientific Reports, 2016).

Test [1] has as its target cross-linked H3C110AK115C-H4T71C-Alexa 488 tetramer. The experiment in a line: other fluorescence titration; saturation stoichiometry: cross-linked H3C110AK115C-H4T71C-Alexa 488 at 10 times the apparent Kd titrated with NP; 150 mM NaCl, 20 mM Tris-HCl, pH 7.6, 1 mM DTT, 1% glycerol, 0.05% Tween 20.
In test [2] the target is H2A–H2BT112C-Alexa 488 dimer (UniProt P06897). The experiment in a line: other fluorescence titration; labelled H2A–H2BT112C-Alexa 488 (0.1–10 nM) titrated with increasing NP (pentamer); 150 mM NaCl, 20 mM Tris-HCl, pH 7.6, 1 mM DTT, 0.1 mg/ml BSA; apparent Kd; ligand-depleted model with 5 sites per NP pentamer.
The target is the same in test [3]. The experiment in a line: other fluorescence titration; saturation stoichiometry: labelled histone dimers at 10 times the apparent Kd titrated with NP; molar ratio at the intersection of the linear phase with the plateau; 150 mM NaCl, 20 mM Tris-HCl, pH 7.6, 1 mM DTT, 0.1 mg/ml BSA.
The target in test [4] is H3C110E-H4T71C-Alexa 488 (predominantly dimeric H3-H4 variant). The description is as above.
The target is the same in test [5]. The experiment in a line: other fluorescence titration; labelled H3-H4 (H3C110E-H4T71C or H3C110A-H4T71C, Alexa 488; 0.1–10 nM) titrated with increasing NP (pentamer); 150 mM NaCl, 20 mM Tris-HCl, pH 7.6, 1 mM DTT, 0.1 mg/ml BSA; apparent Kd; ligand-depleted model with 2 sites per NP pentamer.
The target in test [6] is cross-linked H3C110AK115C-H4T71C-Alexa 488 tetramer. The experiment in a line: other fluorescence titration; cross-linked H3C110AK115C-H4T71C-Alexa 488 titrated with increasing NP (pentamer); 150 mM NaCl, 20 mM Tris-HCl, pH 7.6, 1 mM DTT, 1% glycerol, 0.05% Tween 20; apparent Kd; ligand-depleted model, 1/1 NP pentamer/histone tetramer.
The target of test [7] is egg nucleoplasmin (eNP), native NP from Xenopus laevis eggs (X. laevis) (UniProt P05221). The experiment in a line: other fluorescence titration; competition: preformed NP/H2A–H2BT112C-Alexa 488 complexes (eNP 0.1 nM/histone 1 nM; rNP 0.5 nM/histone 5 nM) titrated with unlabelled H1 or H5; EC50 converted by the Cheng-Prusoff equation; apparent Kd.
The target in test [8] is full-length recombinant nucleoplasmin (rNP) (X. laevis) (UniProt P05221). The description is as above.
Test [9] addresses T1, egg nucleoplasmin (eNP), native NP from Xenopus laevis eggs (X. laevis, UniProt P05221 1-200, natural post-translational modifications, in particular phosphorylation (hyperphosphorylated); sites not printed in the text (circles in Figure 1A)).
T1 construct: nucleoplasmin (NPM2), Xenopus laevis, 22 kDa subunit, residues 1-200 (core 1-120, tail 121-200); Homopentamer; also called NPM2; natural NP
Described as above. To be noted: both partners purified.

Test [10] concerns the target T2, full-length recombinant nucleoplasmin (rNP) (X. laevis, UniProt P05221 1-200).
T2 construct: nucleoplasmin (NPM2), Xenopus laevis, full length recombinant, non-phosphorylated; also called recombinant NP
The test is described as above. To be noted: both partners purified.

Take “egg nucleoplasmin (eNP), native NP from Xenopus laevis eggs (from UniProt P05221 1-200) (natural protein)”: in test [1], the stoichiometry N (cross-linked tetramer per NP pentamer) stood at 1. Besides, the Kd in [2] was found to be 0.06 nM; in test [5] it was 0.05 nM; in [6], 1.1 nM. Also, the stoichiometry N (H2A–H2B dimers per NP pentamer) in test [3] amounted to 5. For the same molecule, the stoichiometry N (H3-H4 dimers per NP pentamer) in [4] was 2.
As for “full-length recombinant nucleoplasmin (rNP) (from UniProt P05221 1-200) (natural protein)”, the stoichiometry N (cross-linked tetramer per NP pentamer) in test [1] is 1. The Kd in test [2] is 7 nM; in [5], 3 nM; in [6], 2.1 nM. Besides, the stoichiometry N (H2A–H2B dimers per NP pentamer) in test [3] was 2.
For “linker histone H1 from chicken erythrocyte chromatin (from UniProt P09987 1-218) (natural protein)”, the Kd amounted to 0.07 nM in test [7] and 1.7 nM in [8].
Turning to “oocyte nucleoplasmin (oNP), NP isolated from X. laevis oocytes (from UniProt P05221 1-200) (natural protein)”, the Kd in [2] turned out to be 0.11 nM; in test [5], 0.09 nM. Moreover, the stoichiometry N (H2A–H2B dimers per NP pentamer) in test [3] was 3.
As to “rNPΔ120–200, recombinant nucleoplasmin core lacking the whole C-terminal domain (from UniProt P05221 1-119) (domain or fragment)”, the results for the Kd in test [2] and in test [5] were 11 nM and 16000 nM, respectively.
With “rNPΔ150–200, recombinant nucleoplasmin lacking the last 50 residues (from UniProt P05221 1-149) (domain or fragment)”, the Kd in test [2] came out at 0.12 nM; in test [5] it was 0.05 nM. The stoichiometry N (H2A–H2B dimers per NP pentamer) in test [3] amounted to 5.

B1: linker histone H5 from chicken erythrocyte chromatin (natural protein, UniProt P02259 1-190, looked up)
chain: MTESLVLSPAPAKPKRVKASRRSASHPTYSEMIAAAIRAEKSRGGSSRQSIQKYIKSHYKVGHNADLQIKLSIRRLLAAGVLKQTKGVGASGSFRLAKSDKAKRSPGKKKKAVRRSTSPKKAARPRKARSPAKKPKATARKARKKSRASPKKAKKPKTVKAKSRKASKAKKVKRSKPRAKSGARKSPKKK
notes: histone H5, chicken erythrocytes; Unlabelled
Regarding B1, the values for the Kd in [9] and in test [10] were 0.03 ± 0.006 nM and 0.7 ± 0.2 nM, respectively.
